Format in all cases: cell-based, human
One assay relates to ERβ signaling pathway. The assay can be described thus: Cotransfection of ERE-tk reporter with ERβ and increasing amounts of ERβcx2 expression plasmid (dominant negative activity). Particulars: ERE-tk reporter cotransfected with ERβ; E2 ligand activation; luciferase measured in 48 hrs; FIG. 10. The source says: (§1) The estrogen response element (ERE) containing reporter, ERα, and ERβ expression plasmids have been described previously (Bodine, et al J Cell Biochem 1997; 65: 368-387 and Bhat et al. J Steroid Biochem Mol Biol 1998; 67(3):233-40). The ERβcx2 expression plasmid was constructed by cloning a BstXI/Xbal fragment of the original ERβcx2 clone (ef1-3/pCR 2.1) into the ERβ expression plasmid digested with the same restriction enzymes. The sequence of the clone was confirmed by sequence analysis. An SV40-β gal plasmid (Promega, Madison, Wis.) was used to normalize transfections.
(§2) Cells were transfected with lipofectamine 2000 and incubated in the presence or absence of estrogen for 24 hrs. Luciferase expression was monitored in the cell lysates. Transient transfections were performed in HepG2 cells maintained in DMEM supplemented with 10% fetal bovine serum. […] 24 hrs later, cells were and luciferase activity was quantitated in an automated ML 1000 Luminometer (Dynex Technologies, Chantilly, Va.,). β-galactosidase activity was measured in cell lysates to normalize for differences in transfection efficiency. […]
(§3) In these experiments, the ERE-tk reporter was cotransfected with either ERα or ERβ and increasing amounts of the ERβcx2 expression plasmid. Luciferase acitivity was measured in 48 hrs. […]

Assay [1] relates to ERE-tk-Luciferase reporter in HepG2 cells. The assay can be described thus: Transactivation of ERE-tk-Luciferase reporter by estrogen receptor variants, transient transfection. Also noted: dose or concentration left out as unconfirmed. Particulars: HepG2 cells transfected with receptor expression plasmid; stimulation with E2 (17b-estradiol) vs ethanol vehicle, 24 hrs; normalized to β-galactosidase.
Description: as §1
as §2, with “serum. Twenty-four hours prior to transfection, cells are seeded in phenol red-free (PRF) DMEM containing 10% charcoal-stripped serum (csFBS), into collagen-coated 6 well plates (Biocoat, Becton Dickenson).” for “serum.”

A further assay relates to ERα signaling pathway. The assay can be described thus: Cotransfection of ERE-tk reporter with ERα and increasing amounts of ERβcx2 expression plasmid (dominant negative activity). Particulars: ERE-tk reporter cotransfected with ERα; E2 ligand activation; luciferase measured in 48 hrs; FIG. 9.
Description: as §1, §2, §3

“Also recorded” adds a separate entry of the source.

B1: ERβcx2: novel human estrogen receptor beta variant; C-terminal 61 amino acids of wild-type ERβ replaced by unique 7 amino acids; tested as expression plasmid (protein)
chain: KVFSQLLSQDMNIKNSPSSLNSPSSYNCSQSILPLEHGSIYIPSSYVDSHHEYPAMTFYSPAVMNYSIPSNVTNLEGGPGRQTTSPNVLWPTPGHLSPLVVHRQLSHLYAEPQKSPWCEARSLEHTLPVNRETLKRKVSGNRCASPVTGPGSKRDAHFCAVCSDYASGYHYGVWSCEGCKAFFKRSIQGHNDYICPATNQCTIDKNRRKSCQACRLRKCYEVGMVKCGSRRERCGYRLVRRQRSADEQLHCAGKAKRSGGHAPRVRELLLDALSPEQLVLTLLEAEPPHVLISRPSAPFTEASMMMSLTKLADKELVHMISWAKKIPGFVELSLFDQVRLLESCWMEVLMMGLMWRSIDHPGKLIFAPDLVLDRDEGKCVEGILEIFDMLLATTSRFRELKLQHKEYLCVKAMILLNSSMYPLVTATQDADSSRKLAHLLNAVTDALVWVIAKSGISSQQQSMRLANLLMLLSHVRHARLYIWALKMFAALKQILRPAFPSSRECFPYCVPLMSMALSQRVHDINKVFHYFGFXKKKKKKKXXXXKKGRPLRIPR
modifications: not fully specified; X: residue not identified in the source
notes: novel human estrogen receptor beta variant; C-terminal 61 amino acids of wild-type ERβ replaced by unique 7 amino acids; tested as expression plasmid
As to B1, in the assay with ERβ signaling pathway, the “signaling through E2-activated ERβ (luciferase) with increasing amounts of the ERβcx2 expression construct” value is given as “reduced”. Also, the “ligand-activated transcription of the ERE-reporter (luciferase activity), induction” value in assay [1] is “unable to induce transcription; also recorded: unchanged”. In addition, in the assay on ERα signaling pathway, the “luciferase activity of E2-activated ERα with increasing amounts of the ERβcx2 expression construct” value is recorded as “diminished”.

B2: ERβ: wild-type estrogen receptor beta, expressed from expression plasmid (protein, UniProt Q92731 1-530, looked up)
Estrogen receptor beta: MDIKNSPSSLNSPSSYNCSQSILPLEHGSIYIPSSYVDSHHEYPAMTFYSPAVMNYSIPSNVTNLEGGPGRQTTSPNVLWPTPGHLSPLVVHRQLSHLYAEPQKSPWCEARSLEHTLPVNRETLKRKVSGNRCASPVTGPGSKRDAHFCAVCSDYASGYHYGVWSCEGCKAFFKRSIQGHNDYICPATNQCTIDKNRRKSCQACRLRKCYEVGMVKCGSRRERCGYRLVRRQRSADEQLHCAGKAKRSGGHAPRVRELLLDALSPEQLVLTLLEAEPPHVLISRPSAPFTEASMMMSLTKLADKELVHMISWAKKIPGFVELSLFDQVRLLESCWMEVLMMGLMWRSIDHPGKLIFAPDLVLDRDEGKCVEGILEIFDMLLATTSRFRELKLQHKEYLCVKAMILLNSSMYPLVTATQDADSSRKLAHLLNAVTDALVWVIAKSGISSQQQSMRLANLLMLLSHVRHASNKGMEHLLNMKCKNVVPVYDLLLEMLNAHVLRGCKSSITGSECSPAEDSKSKEGSQNPQSQ
For B2, the “ligand-activated transcription of the ERE-reporter (luciferase activity), induction” value in assay [1] is on record as 8.0 fold.

These data come from patent publication US7301014B2, “Nucleic acid molecule encoding a novel estrogen receptor beta variant” (Wyeth, priority 2002, dated 2007).
